# Data as given in the nanobody polyreactivity screen of Harvey et al. (2022).
# Experiment: yeast display, Sf9 membrane polyspecificity reagent, FACS + sequencing; frameworks hold sequencing errors
# In short: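 Polyreactivity labels are assigned by the sorting gate from which each nanobody was recovered. The gates were low and high (top ~1%), set on anti-HA fluorescence for expression and streptavidin fluorescence for reagent binding. Before sorting, galactose-induced (36–48 hours) yeast display cells were stained for 1 hour at 4 °C with 10% biotinylated, detergent-solubilized Sf9 membrane reagent.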
row,Sequence,polyreactivity (PSR sort gate)
1,QVQLVETGGGLVQAGGSLRLSCAPSGIIISHYAKGWYRQAPGKETELVAAISSRGGSTYYADSVKGRFTISRDIAKNTVYLQMNSLKPEDTAVYYCATTDPYDSSYYIYYYWGQGTQVTVSS,high polyreactivity
2,QVQLVESGGGLVQAGGSLRLSCAASGSNFDPIVMGGYRKAPGKERELVAAIDVSGGSTYYADSVKGRFTISRDNAKNTVYLQMNSLKPEDTAVYYCAADAEGSASKYDYWGQGTQVTVSS,low polyreactivity
3,QVQLLESGGGLVQAGGSLRLSCAPSGRTFVFNGRGWYRPATAKERELVAAINRSGGSTYYAVSVKGRFTISRDNGKNTVYLQMNSLKPEDTAVYYCLIQHNGLGYWGQGTQVTVSS,low polyreactivity
4,QLQLVESGGGLVQAGGSLRLSCASSGFTLTYAMGWDRQAPGKERELVAAISSSGVRTYYADSVKGRFTISRDNAKNTVYLQKNSLKPEDTALYYCNAFIHGSRSYISDYYWGQGTQVTVSS,high polyreactivity
5,QVQLVESGGGLVQAGGSLRLSCAASGFISNDNAMGWYRQAPGKERELVATIDISDASTYYADSVKGRFTISRDNAKNTVYLQMNSLKPEDTAVYYCAAESDEWFTWYWYGYWGQGTQVTVSS,low polyreactivity
6,QVQLLETGRGLFQEGGSLRLSCAASGGTFGAYVMGWYRQAPGKERELVAAISRSGTRTYYADSVKRRFTISRDNEKNTVYLQMNWLKPEDTAVYYCNAVGYTNRYDDWGQGTQVTVSS,high polyreactivity
7,QVQLVESGGGLGQAGASLRLICAPSGSIFLIYCMGWYRQSPGKERELVAAITARGGSTYYADSVKGSFTISRDNAKNTVYLQMNSLKPEDTSVYYCNDVGYPDVGAGTYGYWGQGTQVTVSS,low polyreactivity
8,QVQLVESGGGLVQAGGSLRLSCAASGFTFPRYAMGWYREAPGKEREFVAAINRGGSTYYADSVKGRFTISRDNAKNTVYLQMNSLKPEDTAVYYCITDRKNRPSPGDYYWGQGTQVTVSS,low polyreactivity
9,QVQHVESGGGLVQAGGSLRLSCAAYGRTFGYYAMGWNRQAPGKDRELVAAITSGGRTNYADSVKGRFTISRDNAKNTVYLQMISQKPEDTAVYYCAATWNWPLSERKFNYWGQGTQVTVSS,low polyreactivity
10,QVQLVESGGGLVQAGGSLRLSCAASGRIFYTNTMGWYRQAPGKERELVAAIRSGTRTYYADSVKGRFTISRDNAKNTVYLQMNSLKPEDTAVYYCAAYYSYYGGDYWGQGTQVTVSS,low polyreactivity
11,QVQLVESGGGLVQAGGSLRLSCAASGLIFTTNAMGWSRPAPGTEREFVAAISPSGGSTYYADSVKGRFTISRDNAKNTVYLQMNSLKPEDTAVYYCAARYSPVWHKYYYWGQGTQVTVSS,high polyreactivity
12,QVQLVETGGGLVQAGGSLRLSCAASGFTILGYDMGWYRQAHGKERELVAAFDYSGGSTYYADSVKGRFTISRDNAQNTVYLQMNSLKPEDTAVYYCAAYTGKGRAYFRWMDYWGQGTQVTVSS,high polyreactivity
13,QVQLVESGGGLVQAGGSLRLSCAASGSTFWPYAMGWYRQAPGKERELVATIRWSGGSTSYADSVKGRFTISRDNAKNTVYVQMNSLKPEDTAVYYCAARDFHYYRFKTYGYWGQGTQVTVSS,high polyreactivity
14,QVQLVESGGGLVQAGGSLRLSCAASGSTFAGNAMGWYRQAPGKERELVAGITSSGARTYYADSVKGRFTISRDNAKNTVYLQMNSLKPEDTAVYYCNKYHFSPYDYWGQGTQVTVSS,high polyreactivity
15,QVQLVESGGGLVQAGGSLRLSCAASGFIFHYNAMGWYRQAPGKERELVAAISARGGGTYYADSVKGRFTISRDNAKNTVYLQMNSLKPEDTAVYYCAAGNYPLGDGYWGQGTQVTVSS,high polyreactivity
16,QVQLVESGGGLVQAGGSLRLSCAASGSTFQYYAMGWYRQAPGKERELVAAIRTGGSTNYADSVKGRFTISRDNAKNTFYLQMNSLKPEDTAVYYCAKRSLRSYRMNYWGQGTQVTVSS,high polyreactivity
17,QVQLVESGGGLVQAGGSLRLSCAASGRTFKVYAMGWYRQAPWKERDLVAAISFSGGSTYYADSVKGRFTISRDNAKNTDYLQMNSLKPEDTAVYYCAAKRYGEYRARGYYYWGQVTQVTVSS,high polyreactivity
18,QVQLVESGGGLVQAGGSLRLSCAASGRIFLINAMGWYRQAPGKERELVAAITSSGGSTYYADSVKGRFTISRDNAKNTVYLQMNSLKPEDTAVYYCATRSYRGRPYNYWGQGTQVTVSS,high polyreactivity
19,QLQLVESGGGLVQAGGSLRLSCAASGSILSRYAMGWYRQAPGKEMELVAGITRGGSTNYADSVKGRFTISRDNAKNTVYLHMNSLKPEDTAVYYGAKASRRFLTLGYDYWGQGTQVTVSS,high polyreactivity
20,QVQLVESGGGLVQAGGSLRLSCAASGGIFTDYTMGWYRQAPGKERELVAAITWTGGSTYYADSVKGRFTISRDNAKNSVYLQMNSLKPEDTAVYYCAADEYWVNLDYWGQGTQVTVSS,low polyreactivity
21,QVQLVESGGGLVQAGGSLRLSCAASGIFVSYAMGWYRQAPGKERELVAAISWNGGSTYYADSVKGRFTISRDNAKNTVYLQMNSLKPEDTAVYDCAARAYFSYRGYVTDYDYWGQGTQVTVSS,high polyreactivity
